pIC50: −log10 of the molar value.
Legend:
[1] = biological target: ErbB3 500.Fc (truncated ErbB3 ectodomain-Fc fusion protein homodimer) (human) (UniProt P21860); experiment: displacement of Eu-HRGβ by unlabelled HRGβ from ErbB3 500.Fc captured on protein G
[2] = biological target: ErbB3 500.Fc (truncated ErbB3 ectodomain-Fc fusion protein homodimer) (human) (UniProt P21860); experiment: summary of the Eu-ligand displacement assays (ErbB3 fragment, HRGβ)
[3] = biological target: ErbB4 497.Fc (truncated ErbB4 ectodomain-Fc fusion protein homodimer) (human) (UniProt Q15303); experiment: summary of the Eu-ligand displacement assays (ErbB4 fragment, HRGβ)
Chain of ErbB4 497.Fc (truncated ErbB4 ectodomain-Fc fusion protein homodimer) (human) (Q15303 26-497, form in doubt): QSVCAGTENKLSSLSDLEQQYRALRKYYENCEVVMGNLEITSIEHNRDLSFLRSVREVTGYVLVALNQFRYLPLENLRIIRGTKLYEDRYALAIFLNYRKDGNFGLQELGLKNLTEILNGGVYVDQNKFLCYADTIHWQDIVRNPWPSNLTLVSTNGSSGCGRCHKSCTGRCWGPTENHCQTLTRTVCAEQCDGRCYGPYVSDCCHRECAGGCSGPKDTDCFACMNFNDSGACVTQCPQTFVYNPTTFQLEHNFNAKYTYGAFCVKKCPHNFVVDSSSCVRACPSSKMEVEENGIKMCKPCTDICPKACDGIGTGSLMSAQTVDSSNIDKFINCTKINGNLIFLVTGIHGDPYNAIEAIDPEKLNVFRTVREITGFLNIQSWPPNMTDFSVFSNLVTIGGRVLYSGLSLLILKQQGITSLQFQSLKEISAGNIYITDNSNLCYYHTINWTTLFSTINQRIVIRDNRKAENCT

[4] = biological target: full-length ErbB4 ectodomain-Fc fusion homodimer (human) (UniProt Q15303); experiment: displacement of Eu-BTC by unlabelled HRGβ from ErbB4 ectodomain-Fc captured on protein G
Chain of full-length ErbB4 ectodomain-Fc fusion homodimer (human) (Q15303 26-651): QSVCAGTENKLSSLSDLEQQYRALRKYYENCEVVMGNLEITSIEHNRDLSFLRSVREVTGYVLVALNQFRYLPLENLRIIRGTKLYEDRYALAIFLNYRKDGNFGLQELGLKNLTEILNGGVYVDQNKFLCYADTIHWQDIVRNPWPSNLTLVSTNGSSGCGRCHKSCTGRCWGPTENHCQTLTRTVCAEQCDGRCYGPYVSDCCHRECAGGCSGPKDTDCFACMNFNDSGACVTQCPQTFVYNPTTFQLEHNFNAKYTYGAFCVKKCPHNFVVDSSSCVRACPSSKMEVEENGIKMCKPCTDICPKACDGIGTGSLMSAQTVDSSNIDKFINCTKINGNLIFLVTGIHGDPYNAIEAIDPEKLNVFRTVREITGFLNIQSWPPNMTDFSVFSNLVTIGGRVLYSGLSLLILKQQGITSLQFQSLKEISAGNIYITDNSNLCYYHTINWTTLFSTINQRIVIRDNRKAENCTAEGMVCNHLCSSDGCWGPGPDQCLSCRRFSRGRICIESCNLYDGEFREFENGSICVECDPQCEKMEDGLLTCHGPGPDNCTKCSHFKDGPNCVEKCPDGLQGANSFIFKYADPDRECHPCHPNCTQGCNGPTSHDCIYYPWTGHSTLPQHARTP

[5] = biological target: ErbB4 497.Fc (truncated ErbB4 ectodomain-Fc fusion protein homodimer) (human) (UniProt Q15303); experiment: displacement of Eu-HRGβ by unlabelled HRGβ from ErbB4 497.Fc captured on protein G
[6] = biological target: ErbB2/4 full-length ectodomain-Fc heterodimer (human) (UniProt P04626); experiment: displacement of Eu-BTC by unlabelled HRGβ from ErbB2/4 ectodomain-Fc captured on protein G

Chain of ErbB3 500.Fc (truncated ErbB3 ectodomain-Fc fusion protein homodimer) (human) (P21860 20-500, form in doubt): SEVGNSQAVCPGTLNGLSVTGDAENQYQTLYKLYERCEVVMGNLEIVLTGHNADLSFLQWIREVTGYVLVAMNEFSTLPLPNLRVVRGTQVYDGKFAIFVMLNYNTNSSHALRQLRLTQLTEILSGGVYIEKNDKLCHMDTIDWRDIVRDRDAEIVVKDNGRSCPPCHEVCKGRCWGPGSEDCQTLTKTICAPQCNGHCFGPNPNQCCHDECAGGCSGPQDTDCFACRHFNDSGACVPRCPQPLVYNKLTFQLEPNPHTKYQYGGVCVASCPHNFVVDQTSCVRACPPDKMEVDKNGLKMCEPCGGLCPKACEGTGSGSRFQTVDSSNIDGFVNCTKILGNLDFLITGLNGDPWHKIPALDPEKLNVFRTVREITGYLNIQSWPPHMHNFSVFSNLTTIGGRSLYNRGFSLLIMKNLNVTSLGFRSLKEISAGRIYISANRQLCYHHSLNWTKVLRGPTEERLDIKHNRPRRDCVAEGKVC

- pIC50 [1]: 9.31
- affinity [2]: < 1 nM
- affinity [3]: < 1 nM
- pIC50 [4]: 7.74
- pIC50 [5]: 10.24
- change of the IC50 against the ErbB4 ectodomain-Fc homodimer [6]: 100 fold
Substance: β-heregulin (HRGβ, Sigma) (ligand)

— patent publication US20060234343A1
